Measured values taken from patent US8969060B2, “Modified glucose dehydrogenase” (Ikeda Food Research Co., Ltd., priority 2011, dated 2015).
Where a chain is given by its changes, count along the chain named. Numbers in names are those of the source. Where “and” joins values, the source holds several entries; their conditions need not be identical. Identical values can stand only once.

B1: G352C: modified GLD: SEQ ID NO: 1 with substitution G352C (protein, listed as Aspergillus terreus)
chain: MLGKLSFLSALSLAVAAPLSNSTSAKYDYIVIGGGTSGLAVANRLSEDPNVNVLILEAGGSVWNNPNVTNVDGYGLAFGSDIDWQYQSVNQPYGGNLSQVLRAGKALGGTSTINGMAYTRAEDVQIDAWETIGNTGWTWKNLFPYYRKSENFTVPTKSQTSLGASYEAGAHGHEGPLDVAFTQIESNNLTTYLNRTFQGMGLPWTEDVNGGKMRGFNLYPSTVNLEEYVREDAARAYYWPYKSRPNLHVLLNTFANRIVWDGEAHDGHITASGVEITSRNGTVRVINAEKEVIVSAGALKSPAILELSGIGNPSVLDKHNIPVKVNLPTVGENLQDQVNSHMDASGNTSISCTKAVSYPDVYDVFGDEAESVAKQIRANLKQYAADTAKANGNIMKAADLERLFEVQYDLIFKGRVPIAEVLNYPGSATSVFAEFWALLPFARGSVHIGSSNPAEFPVINPNYFMLDWDAKSYVAVAKYIRRSFESYPLSSIVKESTPGYDVIPRNASEQSWKEWVFDKNYRSNFHPVGTAAMMPREIGGVVDERLNVYGTTNVRVVDASVLPFQVCGHLVSTLYAVAERAADLIKADAGRR
modifications: SIGNAL (1)..(19)
B2: G426N: modified GLD: SEQ ID NO: 1 with substitution G426N (protein, listed as Aspergillus terreus)
chain: B1 chain with C352G, G426N
modifications: SIGNAL (1)..(19)
B3: F432M: modified GLD: SEQ ID NO: 1 with substitution F432M (protein, listed as Aspergillus terreus)
chain: B1 chain with C352G, F432M
modifications: SIGNAL (1)..(19)
B4: G426F: modified GLD: SEQ ID NO: 1 with substitution G426F (protein, listed as Aspergillus terreus)
chain: B1 chain with C352G, G426F
modifications: SIGNAL (1)..(19)
B5: G352D: modified GLD: SEQ ID NO: 1 with substitution G352D (protein, listed as Aspergillus terreus)
chain: B1 chain with C352D
modifications: SIGNAL (1)..(19)
B6: V431F: modified GLD: SEQ ID NO: 1 with substitution V431F (protein, listed as Aspergillus terreus)
chain: B1 chain with C352G, V431F
modifications: SIGNAL (1)..(19)
B7: F432V: modified GLD: SEQ ID NO: 1 with substitution F432V (protein, listed as Aspergillus terreus)
chain: B1 chain with C352G, F432V
modifications: SIGNAL (1)..(19)
B8: F432K: modified GLD: SEQ ID NO: 1 with substitution F432K (protein, listed as Aspergillus terreus)
chain: B1 chain with C352G, F432K
modifications: SIGNAL (1)..(19)
B9: G426S: modified GLD: SEQ ID NO: 1 with substitution G426S (protein, listed as Aspergillus terreus)
chain: B1 chain with C352G, G426S
modifications: SIGNAL (1)..(19)
B10: G426M: modified GLD: SEQ ID NO: 1 with substitution G426M (protein, listed as Aspergillus terreus)
chain: B1 chain with C352G, G426M
modifications: SIGNAL (1)..(19)
B11: G426E: modified GLD: SEQ ID NO: 1 with substitution G426E (protein, listed as Aspergillus terreus)
chain: B1 chain with C352G, G426E
modifications: SIGNAL (1)..(19)
B12: F432Q: modified GLD: SEQ ID NO: 1 with substitution F432Q (protein, listed as Aspergillus terreus)
chain: B1 chain with C352G, F432Q
modifications: SIGNAL (1)..(19)
B13: G426I: modified GLD: SEQ ID NO: 1 with substitution G426I (protein, listed as Aspergillus terreus)
chain: B1 chain with C352G, G426I
modifications: SIGNAL (1)..(19)
B14: G426H: modified GLD: SEQ ID NO: 1 with substitution G426H (protein, listed as Aspergillus terreus)
chain: B1 chain with C352G, G426H
modifications: SIGNAL (1)..(19)
B15: G426K: modified GLD: SEQ ID NO: 1 with substitution G426K (protein, listed as Aspergillus terreus)
chain: B1 chain with C352G, G426K
modifications: SIGNAL (1)..(19)
B16: G426Y: modified GLD: SEQ ID NO: 1 with substitution G426Y (protein, listed as Aspergillus terreus)
chain: B1 chain with C352G, G426Y
modifications: SIGNAL (1)..(19)
B17: G426P: modified GLD: SEQ ID NO: 1 with substitution G426P (protein, listed as Aspergillus terreus)
chain: B1 chain with C352G, G426P
modifications: SIGNAL (1)..(19)
B18: F432T: modified GLD: SEQ ID NO: 1 with substitution F432T (protein, listed as Aspergillus terreus)
chain: B1 chain with C352G, F432T
modifications: SIGNAL (1)..(19)
B19: G426V: modified GLD: SEQ ID NO: 1 with substitution G426V (protein, listed as Aspergillus terreus)
chain: B1 chain with C352G, G426V
modifications: SIGNAL (1)..(19)
B20: F432I: modified GLD: SEQ ID NO: 1 with substitution F432I (protein, listed as Aspergillus terreus)
chain: B1 chain with C352G, F432I
modifications: SIGNAL (1)..(19)
B21: G426T: modified GLD: SEQ ID NO: 1 with substitution G426T (protein, listed as Aspergillus terreus)
chain: B1 chain with C352G, G426T
modifications: SIGNAL (1)..(19)
B22: G426R: modified GLD: SEQ ID NO: 1 with substitution G426R (protein, listed as Aspergillus terreus)
chain: B1 chain with C352G, G426R
modifications: SIGNAL (1)..(19)
B23: G426W: modified GLD: SEQ ID NO: 1 with substitution G426W (protein, listed as Aspergillus terreus)
chain: B1 chain with C352G, G426W
modifications: SIGNAL (1)..(19)
B24: G426L: modified GLD: SEQ ID NO: 1 with substitution G426L (protein, listed as Aspergillus terreus)
chain: B1 chain with C352G, G426L
modifications: SIGNAL (1)..(19)

assay: Relative enzymatic activity of GLD (DCIP/1-m-PMS, plate reader, yeast culture supernatant) with 1,10-phenanthroline present; type: biochemical; conditions: site-specific mutants, inhibitor final concentration 1 mM
In short: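 Inhibitor at 1 mM final substitutes for the methanol in the reagent, and the sample rate is expressed as % of the inhibitor-free blank. Rates come from ΔA600/min of DCIP with glucose and 1-m-PMS at pH 7.0, using supernatants of YPD-grown yeast clones (24 h, 30° C.).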

| Molecule | Relative Activity [%] 1,10-Phenanthroline |
| --- | --- |
| B1 | 86.2% |
| B2 | 69.6% |
| B3 | 62.5% and 74.2% |
| B4 | 60.5% |
| B5 | 87.8% |
| B6 | 82.1% |
| B7 | 80.2% |
| B8 | 92.1% |
| B9 | 80.9% |
| B10 | 78.3% |
| B11 | 64.4% |
| B12 | 59.3% |
| B13 | 93.2% |
| B14 | 54.9% |
| B15 | 94.3% |
| B16 | 61.6% |
| B17 | 56.1% |
| B18 | 89.9% |
| B19 | 90.3% |
| B20 | 91.8% |
| B21 | 88.5% |
| B22 | 71.5% |
| B23 | 61.0% |
| B24 | 91.2% |

assay: Relative enzymatic activity of GLD (DCIP/1-m-PMS, plate reader, yeast culture supernatant) with proflavin hydrochloride present; type: biochemical; conditions: site-specific mutants, inhibitor final concentration 1 mM
In short: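 Culture supernatant diluted and mixed with reagent of phosphate buffer pH 7.0, 1.0 M D-glucose, 3 mM DCIP, 3 mM 1-m-PMS and methanol (0.1:1:0.14:0.2:0.06). DCIP absorbance decrease at 600 nm followed; proflavin hydrochloride in methanol replaced methanol at 1 mM final. Activity expressed as % of inhibitor-free blank.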

| Molecule | Relative Activity [%] Proflavin hydrochloride |
| --- | --- |
| B1 | 43.8% |
| B2 | 51.9% |
| B3 | 71.1% and 66.1% |
| B4 | 51.8% |
| B5 | 42.7% |
| B6 | 57.7% |
| B7 | 70.3% |
| B8 | 79.3% |
| B9 | 58.0% |
| B10 | 58.8% |
| B11 | 32.6% |
| B12 | 67.3% |
| B13 | 63.4% |
| B14 | 48.7% |
| B15 | 65.4% |
| B16 | 47.5% |
| B17 | 33.3% |
| B18 | 80.2% |
| B19 | 59.9% |
| B20 | 80.9% |
| B21 | 58.4% |
| B22 | 43.0% |
| B23 | 47.8% |
| B24 | 63.7% |
